According to US20050260730A1 (published 2005):
Non-standard residues stand in square brackets, D forms with d. Phe(4-F) = N[C@@H](Cc1ccc(F)cc1)C(=O)O

Biological target: CDK2/cyclin A complex (human, UniProt P24941 1-298; P20248 173-432)
Assay: cell-based or functional assay

Row | CDK2/cyclin A kinase activity IC50 | Binder
1 | 50 µM | H-RRL[Phe(4-F)]-NH2 (SMILES CC(C)C[C@H](NC(=O)[C@H](CCCNC(=N)N)NC(=O)[C@@H](N)CCCNC(=N)N)C(=O)N[C@@H](Cc1ccc(F)cc1)C(N)=O) [H-Arg-Arg-Leu-(p-F-Phe)-NH2]
2 | > 50 µM | Ac-RRLNF-NH2 [Ac-Arg-Arg-Leu-Asn-Phe-NH2]
